In patent publication US20210253701A1 (Regeneron, published 2021):

B1: BSPSMA/CD3-200 (bispecific antibody)
chain 1: QVQLVESGGGVVQPGRSLRLSCAASGFTFSSYGMHWVRQAPGKGLEWVAVISYAGNNKYYADSVKGRFTVSRDNSKKTLYLQMNSLRSEDTAVYYCAKDSYYDFLTDPDVLDIWGQGTMVTVSS
chain 2: EVQLVESGGGLVQPGRSLRLSCAASGFTFDDYAMHWVRQAPGKGLEWVSGISWNSGSIGYADSVKGRFTISRDNAKNSLYLQMNSLRAEDTALYYCAKDGSGYGYFYYYGMDVWGQGTTVTVSS
chain 3: DIQMTQSPSSLSASVGDSVTITCRASQSINNYLNWYQQKPGKAPKLLIYTASSLLSGVPSRFSGSGSGTDFTLTISGLHPEDFATYFCQQSFSTPPITFGQGTRLDIK
B2: BSPSMA/CD3-300 (bispecific antibody)
chain 1: QVQLVESGGGVVQPGRSLRLSCAASGFTFSSYGMHWVRQAPGKGLEWVAVISYAGNNKYYADSVKGRFTVSRDNSKKTLYLQMNSLRSEDTAVYYCAKDSYYDFLTDPDVLDIWGQGTMVTVSS
chain 2: EVQLVESGGGLVQPGRSLRLSCAASGFTFDDYSMHWVRQAPGKGLEWVSGISWNSGSIGYADSVKGRFTISRDNAKNSLYLQMNSLRAEDTALYYCAKDGSGYGYFYYYGMDVWGQGTTVTVSS
chain 3: DIQMTQSPSSLSASVGDSVTITCRASQSINNYLNWYQQKPGKAPKLLIYTASSLLSGVPSRFSGSGSGTDFTLTISGLHPEDFATYFCQQSFSTPPITFGQGTRLDIK
B3: BSPSMA/CD3-800 (bispecific antibody)
chain 1: QVQLVESGGGVVQPGRSLRLSCAASGFTFSSYGMHWVRQAPGKGLEWVAVISYAGNNKYYADSVKGRFTVSRDNSKKTLYLQMNSLRSEDTAVYYCAKDSYYDFLTDPDVLDIWGQGTMVTVSS
chain 2: EVQLVESGGGLVQPGRSLRLSCAASGFTFDDYSMHWVRQAPGKGLEWVSGISWNSGSIGYADSVKGRFTISRDNAKNSLYLQMNSLRAEDTALYYCAKYGSGYGKFYHYGLDVWGQGTTVTVSS
chain 3: DIQMTQSPSSLSASVGDSVTITCRASQSINNYLNWYQQKPGKAPKLLIYTASSLLSGVPSRFSGSGSGTDFTLTISGLHPEDFATYFCQQSFSTPPITFGQGTRLDIK
B4: BSPSMA/CD3-900 (bispecific antibody)
chain 1: QVQLVESGGGVVQPGRSLRLSCAASGFTFSSYGMHWVRQAPGKGLEWVAVISYAGNNKYYADSVKGRFTVSRDNSKKTLYLQMNSLRSEDTAVYYCAKDSYYDFLTDPDVLDIWGQGTMVTVSS
chain 2: EVQLVESGGGLVQPGRSLRLSCAASGFTFDDYSMHWVRQAPGKGLEWVSGISWNSGSKGYADSVKGRFTISRDNAKNSLYLQMNSLRAEDTALYYCAKDGSGYGKFYHYGLDVWGQGTTVTVSS
chain 3: DIQMTQSPSSLSASVGDSVTITCRASQSINNYLNWYQQKPGKAPKLLIYTASSLLSGVPSRFSGSGSGTDFTLTISGLHPEDFATYFCQQSFSTPPITFGQGTRLDIK
B5: BSPSMA/CD3-1000 (bispecific antibody)
chain 1: QVQLVESGGGVVQPGRSLRLSCAASGFTFSSYGMHWVRQAPGKGLEWVAVISYAGNNKYYADSVKGRFTVSRDNSKKTLYLQMNSLRSEDTAVYYCAKDSYYDFLTDPDVLDIWGQGTMVTVSS
chain 2: EVQLVESGGGLVQPGRSLRLSCAASGFTFDDYSMHWVRQAPGKGLEWVSGISWNSGSKGYADSVKGRFTISRDNAKNSLYLQMNSLRAEDTALYYCAKYGSGYGKFYYYGLDVWGQGTTVTVSS
chain 3: DIQMTQSPSSLSASVGDSVTITCRASQSINNYLNWYQQKPGKAPKLLIYTASSLLSGVPSRFSGSGSGTDFTLTISGLHPEDFATYFCQQSFSTPPITFGQGTRLDIK
B6: BSPSMA/CD3-1100 (bispecific antibody)
chain 1: QVQLVESGGGVVQPGRSLRLSCAASGFTFSSYGMHWVRQAPGKGLEWVAVISYAGNNKYYADSVKGRFTVSRDNSKKTLYLQMNSLRSEDTAVYYCAKDSYYDFLTDPDVLDIWGQGTMVTVSS
chain 2: EVQLVESGGGLVQPGRSLRLSCAASGFTFDDYSMHWVRQAPGKGLEWVSGISWNSGSKGYADSVKGRFTISRDNAKNSLYLQMNSLRAEDTALYYCAKYGSGYGKFYHYGMDVWGQGTTVTVSS
chain 3: DIQMTQSPSSLSASVGDSVTITCRASQSINNYLNWYQQKPGKAPKLLIYTASSLLSGVPSRFSGSGSGTDFTLTISGLHPEDFATYFCQQSFSTPPITFGQGTRLDIK
B7: BSPSMA/CD3-1200 (bispecific antibody)
chain 1: QVQLVESGGGVVQPGRSLRLSCAASGFTFSSYGMHWVRQAPGKGLEWVAVISYAGNNKYYADSVKGRFTVSRDNSKKTLYLQMNSLRSEDTAVYYCAKDSYYDFLTDPDVLDIWGQGTMVTVSS
chain 2: EVQLVESGGGLVQPGRSLRLSCAASGFTFDDYSMHWVRQAPGKGLEWVSGISWNSGSIGYADSVKGRFTISRDNAKNSLYLQMNSLRAEDTALYYCAKDGSGYGKFYHYGLDVWGQGTTVTVSS
chain 3: DIQMTQSPSSLSASVGDSVTITCRASQSINNYLNWYQQKPGKAPKLLIYTASSLLSGVPSRFSGSGSGTDFTLTISGLHPEDFATYFCQQSFSTPPITFGQGTRLDIK
B8: BSPSMA/CD3-1300 (bispecific antibody)
chain 1: QVQLVESGGGVVQPGRSLRLSCAASGFTFSSYGMHWVRQAPGKGLEWVAVISYAGNNKYYADSVKGRFTVSRDNSKKTLYLQMNSLRSEDTAVYYCAKDSYYDFLTDPDVLDIWGQGTMVTVSS
chain 2: EVQLVESGGGLVQPGRSLRLSCAASGFTFDDYSMHWVRQAPGKGLEWVSGISWNSGSIGYADSVKGRFTISRDNAKNSLYLQMNSLRAEDTALYYCAKYGSGYGKFYYYGLDVWGQGTTVTVSS
chain 3: DIQMTQSPSSLSASVGDSVTITCRASQSINNYLNWYQQKPGKAPKLLIYTASSLLSGVPSRFSGSGSGTDFTLTISGLHPEDFATYFCQQSFSTPPITFGQGTRLDIK
B9: BSPSMA/CD3-1400 (bispecific antibody)
chain 1: QVQLVESGGGVVQPGRSLRLSCAASGFTFSSYGMHWVRQAPGKGLEWVAVISYAGNNKYYADSVKGRFTVSRDNSKKTLYLQMNSLRSEDTAVYYCAKDSYYDFLTDPDVLDIWGQGTMVTVSS
chain 2: EVQLVESGGGLVQPGRSLRLSCAASGFTFDDYSMHWVRQAPGKGLEWVSGISWNSGSIGYADSVKGRFTISRDNAKNSLYLQMNSLRAEDTALYYCAKYGSGYGKFYHYGMDVWGQGTTVTVSS
chain 3: DIQMTQSPSSLSASVGDSVTITCRASQSINNYLNWYQQKPGKAPKLLIYTASSLLSGVPSRFSGSGSGTDFTLTISGLHPEDFATYFCQQSFSTPPITFGQGTRLDIK
B10: BSPSMA/CD3-1500 (bispecific antibody)
chain 1: QVQLVESGGGVVQPGRSLRLSCAASGFTFSSYGMHWVRQAPGKGLEWVAVISYAGNNKYYADSVKGRFTVSRDNSKKTLYLQMNSLRSEDTAVYYCAKDSYYDFLTDPDVLDIWGQGTMVTVSS
chain 2: EVQLVESGGGLVQPGRSLRLSCAASGFTFDDYSMHWVRQAPGKGLEWVSGISWNSGSKGYADSVKGRFTISRDNAKNSLYLQMNSLRAEDTALYYCAKDGSGYGKFYYYGLDVWGQGTTVTVSS
chain 3: DIQMTQSPSSLSASVGDSVTITCRASQSINNYLNWYQQKPGKAPKLLIYTASSLLSGVPSRFSGSGSGTDFTLTISGLHPEDFATYFCQQSFSTPPITFGQGTRLDIK
B11: BSPSMA/CD3-1600 (bispecific antibody)
chain 1: QVQLVESGGGVVQPGRSLRLSCAASGFTFSSYGMHWVRQAPGKGLEWVAVISYAGNNKYYADSVKGRFTVSRDNSKKTLYLQMNSLRSEDTAVYYCAKDSYYDFLTDPDVLDIWGQGTMVTVSS
chain 2: EVQLVESGGGLVQPGRSLRLSCAASGFTFDDYSMHWVRQAPGKGLEWVSGISWNSGSKGYADSVKGRFTISRDNAKNSLYLQMNSLRAEDTALYYCAKDGSGYGKFYHYGMDVWGQGTTVTVSS
chain 3: DIQMTQSPSSLSASVGDSVTITCRASQSINNYLNWYQQKPGKAPKLLIYTASSLLSGVPSRFSGSGSGTDFTLTISGLHPEDFATYFCQQSFSTPPITFGQGTRLDIK
B12: BSPSMA/CD3-1700 (bispecific antibody)
chain 1: QVQLVESGGGVVQPGRSLRLSCAASGFTFSSYGMHWVRQAPGKGLEWVAVISYAGNNKYYADSVKGRFTVSRDNSKKTLYLQMNSLRSEDTAVYYCAKDSYYDFLTDPDVLDIWGQGTMVTVSS
chain 2: EVQLVESGGGLVQPGRSLRLSCAASGFTFDDYSMHWVRQAPGKGLEWVSGISWNSGSKGYADSVKGRFTISRDNAKNSLYLQMNSLRAEDTALYYCAKYGSGYGKFYYYGMDVWGQGTTVTVSS
chain 3: DIQMTQSPSSLSASVGDSVTITCRASQSINNYLNWYQQKPGKAPKLLIYTASSLLSGVPSRFSGSGSGTDFTLTISGLHPEDFATYFCQQSFSTPPITFGQGTRLDIK
B13: BSPSMA/CD3-1900 (bispecific antibody)
chain 1: QVQLVESGGGVVQPGRSLRLSCAASGFTFSSYGMHWVRQAPGKGLEWVAVISYAGNNKYYADSVKGRFTVSRDNSKKTLYLQMNSLRSEDTAVYYCAKDSYYDFLTDPDVLDIWGQGTMVTVSS
chain 2: EVQLVESGGGLVQPGRSLRLSCAASGFTFDDYSMHWVRQAPGKGLEWVSGISWNSGSIGYADSVKGRFTISRDNAKNSLYLQMNSLRAEDTALYYCAKDGSGYGKFYHYGMDVWGQGTTVTVSS
chain 3: DIQMTQSPSSLSASVGDSVTITCRASQSINNYLNWYQQKPGKAPKLLIYTASSLLSGVPSRFSGSGSGTDFTLTISGLHPEDFATYFCQQSFSTPPITFGQGTRLDIK
B14: BSPSMA/CD3-005 (bispecific antibody)
chain 1: QVQLVESGGGVVQPGRSLRLSCAASGFTFSSYGMHWVRQAPGKGLEWVAVISYAGNNKYYADSVKGRFTVSRDNSKKTLYLQMNSLRSEDTAVYYCAKDSYYDFLTDPDVLDIWGQGTMVTVSS
chain 2: EVQLVESGGGLVQPGRSLRLSCAASGFTFDDYSMHWVRQAPGKGLEWVSGISWNSGSIGYADSVKGRFTISRDNAKNSLYLQMNSLRAEDTALYYCAKYGSGYGKFYYYGMDVWGQGTTVTVSS
chain 3: DIQMTQSPSSLSASVGDSVTITCRASQSINNYLNWYQQKPGKAPKLLIYTASSLLSGVPSRFSGSGSGTDFTLTISGLHPEDFATYFCQQSFSTPPITFGQGTRLDIK
B15: BSPSMA/CD3-2100 (bispecific antibody)
chain 1: QVQLVESGGGVVQPGRSLRLSCAASGFTFSSYGMHWVRQAPGKGLEWVAVISYAGNNKYYADSVKGRFTVSRDNSKKTLYLQMNSLRSEDTAVYYCAKDSYYDFLTDPDVLDIWGQGTMVTVSS
chain 2: EVQLVESGGGLVQPGRSLRLSCAASGFTFDDYSMHWVRQAPGKGLEWVSGISWNSGSKGYADSVKGRFTISRDNAKNSLYLQMNSLRAEDTALYYCAKDGSGYGKFYYYGMDVWGQGTTVTVSS
chain 3: DIQMTQSPSSLSASVGDSVTITCRASQSINNYLNWYQQKPGKAPKLLIYTASSLLSGVPSRFSGSGSGTDFTLTISGLHPEDFATYFCQQSFSTPPITFGQGTRLDIK

What follows are binders tested against T1, soluble heterodimeric hCD3ε/δ.mFc protein (human) (assay: SPR 37 C, antigen-capture format).
T1 construct: also called soluble human CD3; human CD3 heterodimeric protein
T1 sequence (P07766 23-126, stated change not applied, chain 1 of 2): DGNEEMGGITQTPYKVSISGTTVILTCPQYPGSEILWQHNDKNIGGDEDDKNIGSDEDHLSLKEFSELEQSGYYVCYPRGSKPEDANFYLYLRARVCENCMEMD
T1 sequence (P04234 22-105, stated change not applied, chain 2 of 2, further chain): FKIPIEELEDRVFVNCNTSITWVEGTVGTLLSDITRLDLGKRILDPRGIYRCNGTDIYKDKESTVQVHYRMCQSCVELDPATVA

**Q.** With B1 as the binder, how does the Kd read?
**A.** > 500 nM

**Q.** B2 was tested. Which Kd did it give?
**A.** > 500 nM

Target: T1, soluble heterodimeric hCD3ε/δ.mFc …
Assay: SPR 37 C, antigen-capture format
Remark: another data set of the same source

**Q.** With B3 as the binder, how does the T½ read?
**A.** 10 min

**Q.** With B4 as the binder, how does the T½ read?
**A.** 2.3 min

**Q.** For B5, which T½ is on record?
**A.** 1.8 min

**Q.** Which T½ does the source give for B6 here?
**A.** 11.3 min

**Q.** How did the T½ turn out when B7 was run?
**A.** 4.7 min

**Q.** For B8, which T½ is on record?
**A.** 4.7 min

**Q.** Which T½ does the source give for B9 here?
**A.** 3.5 min

**Q.** Which T½ does the source give for B10 here?
**A.** 1.9 min

**Q.** B11 was tested. Which T½ did it give?
**A.** 4.7 min

**Q.** Which T½ does the source give for B12 here?
**A.** 3.8 min

**Q.** With B13 as the binder, how does the T½ read?
**A.** 2.3 min

**Q.** For B14, which T½ is on record?
**A.** 2 min

**Q.** Which T½ does the source give for B15 here?
**A.** 4.9 min
